Key:
[1] = target: native human CD20 on isolated normal human B cells (human) (UniProt P11836); experiment: Scatchard analysis, unlabeled against 125I-IgG on human B cells, Donor 1
[2] = target: human CD20 expressed with the sLE leader (sLE.CD20), leader removed with thrombin (human) (UniProt P11836); experiment: ELISA, CD20 coated on the plate, rituximab titrated, detection with HRP goat anti-human F(ab')2, absorbance 450 nm
[3] = target: His-tagged human CD20 expressed in E. coli (human) (UniProt P11836); experiment: as above
[4] = target: human CD20 expressed with the LE leader (LE.CD20), leader and His-tag removed with thrombin (human) (UniProt P11836); experiment: as above
[5] = target: native human CD20 on isolated normal human B cells (human) (UniProt P11836); experiment: Scatchard analysis, unlabeled against 125I-IgG on human B cells, Donor 2
[6] = target: native human CD20 on isolated normal human B cells (human) (UniProt P11836); experiment: Scatchard analysis, unlabeled against 125I-IgG on human B cells, Donor 3
Reduced, Reoxidized = experiment: ELISA, reduced and re-oxidized CD20 coated on the plate, rituximab titrated, detection with HRP goat anti-human F(ab')2, absorbance 450 nm
Sequence of Reduced, Reoxidized (CD20 polypeptide, as listed by the source): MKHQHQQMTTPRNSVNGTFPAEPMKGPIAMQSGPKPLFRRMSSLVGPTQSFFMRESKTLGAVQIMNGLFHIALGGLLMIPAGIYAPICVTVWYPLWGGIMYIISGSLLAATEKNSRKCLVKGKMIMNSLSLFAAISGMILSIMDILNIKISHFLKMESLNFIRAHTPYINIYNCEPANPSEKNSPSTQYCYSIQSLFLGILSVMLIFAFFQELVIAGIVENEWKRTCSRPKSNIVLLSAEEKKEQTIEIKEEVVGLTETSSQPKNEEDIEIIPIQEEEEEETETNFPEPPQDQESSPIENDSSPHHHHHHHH

[7] = target: His-tagged human CD20 expressed in E. coli (human) (UniProt P11836); experiment: SPR (BIAcore-3000), rituximab IgG immobilised on CM5, CD20 in 0.1% DDM as analyte, 1:1 model
[8] = target: native human CD20 on isolated normal human B cells (human) (UniProt P11836); experiment: Scatchard analysis, unlabeled against 125I-Fab on human B cells, Donor 4
[9] = target: native human CD20 on isolated normal human B cells (human) (UniProt P11836); experiment: Scatchard analysis, unlabeled against 125I-Fab on human B cells, Donor 5
[10] = target: C2S mutant of human CD20 (Cys111Ser, Cys220Ser), His-tagged (human) (UniProt P11836); experiment: SPR (BIAcore-3000), rituximab Fab immobilised on CM5, affinity purified C2S-CD20 as analyte, 1:1 model
[11] = target: C2S mutant of human CD20 (Cys111Ser, Cys220Ser), His-tagged (human) (UniProt P11836); experiment: SPR (BIAcore-3000), rituximab Fab immobilised on CM5, C2S-CD20 in 0.1% DDM as analyte, 1:1 model
[12] = target: His-tagged human CD20 expressed in E. coli (human) (UniProt P11836); experiment: SPR (BIAcore-3000), rituximab Fab immobilised on CM5, CD20 in 0.1% DDM as analyte, 1:1 model

Kd [1] [nM]	EC50 (read off the curve) [2] [nM]	EC50 (read off the curve) [3] [nM]	EC50 (read off the curve) [4] [nM]	Kd [5] [nM]	Kd [6] [nM]	EC50 (read off the curve) (Reduced, Reoxidized) [nM]	Ka [7] [M⁻¹]	Kd [8] [nM]	Kd [9] [nM]	Ka [10] [M⁻¹]	Kd [10] [nM]	Ka [11] [M⁻¹]	Kd [11] [nM]	Ka [12] [M⁻¹]	Kd [12] [nM]	Substance
0.32	0.4	0.5	0.5	0.72	1.27	50	6.6e+06	–	–	–	–	–	–	–	–	rituximab full length antibody
–	–	–	–	–	–	–	–	52	63	5.4e+06	190	4.4e+06	230	3.5e+06	280	rituximab Fab
